This note sets out measurements from patent publication US20260001928A1 (CORTERIA PHARMACEUTICALS, priority 2022, published 2026).

For assay [1], the target named is T1, CRF1R receptor (UniProt P34998 24-415, limits assumed).
T1 sequence (looked up): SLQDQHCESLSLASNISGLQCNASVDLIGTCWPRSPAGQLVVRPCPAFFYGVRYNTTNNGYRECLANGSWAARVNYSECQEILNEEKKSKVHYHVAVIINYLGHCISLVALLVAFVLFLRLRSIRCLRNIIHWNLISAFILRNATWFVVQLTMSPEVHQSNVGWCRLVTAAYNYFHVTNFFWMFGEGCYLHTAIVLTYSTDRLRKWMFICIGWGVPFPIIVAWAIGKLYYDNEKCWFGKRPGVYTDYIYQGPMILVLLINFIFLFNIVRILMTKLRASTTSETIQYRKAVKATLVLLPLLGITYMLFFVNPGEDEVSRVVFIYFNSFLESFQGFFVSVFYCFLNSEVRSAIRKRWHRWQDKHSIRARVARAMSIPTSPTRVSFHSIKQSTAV
Put plainly: cell-based or functional assay.

For assay [2], the target named is human corticotropin-releasing factor 2a (CRF2a receptor) (human), Q13324. Put plainly: cell-based or functional assay.
human corticotropin-releasing factor 2a (CRF2a receptor) (human), Q13324, sequence (Q13324 20-411): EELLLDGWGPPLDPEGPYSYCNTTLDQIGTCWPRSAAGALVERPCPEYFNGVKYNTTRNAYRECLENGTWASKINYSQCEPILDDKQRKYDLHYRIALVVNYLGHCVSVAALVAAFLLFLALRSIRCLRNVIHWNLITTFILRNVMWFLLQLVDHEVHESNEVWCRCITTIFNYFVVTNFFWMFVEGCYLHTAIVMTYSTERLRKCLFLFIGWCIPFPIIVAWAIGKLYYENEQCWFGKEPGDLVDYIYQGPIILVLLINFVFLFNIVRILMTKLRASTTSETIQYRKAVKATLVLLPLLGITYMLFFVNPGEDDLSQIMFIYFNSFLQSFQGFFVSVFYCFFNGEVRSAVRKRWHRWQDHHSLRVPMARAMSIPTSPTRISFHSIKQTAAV

*1 amine or outer side, *2 acyl side, *3 side chain or, on linkers, in order; H or OH if unused. Where no end group is shown, it is not given here. Side-chain parts run from the residue outwards. [ ]: non-standard residue; d: D form. The star is where a group is joined. C18 diacid = O=C(O)CCCCCCCCCCCCCCCCC(=O)*; C16 diacid = O=C(O)CCCCCCCCCCCCCCC(=O)*; γGlu = O=C(O)[C@H](CCC(=O)[*:2])N[*:1]; NMeI = CC[C@H](C)[C@H](NC)C(=O)O; Nva = CCC[C@H](N)C(=O)O; Abu = CC[C@H](N)C(=O)O; AEEA = NCCOCCOCC(=O)O; Aib = CC(C)(N)C(=O)O

Broadly, the EC50 is the concentration that produces a half-maximal response. A high value points to a need for much substance.

B1: SEQ ID NO 104 (peptide)
peptide: Ac-IVLSLD[dV]PIKLK([AEEA-AEEA-γGlu-C18 diacid])KILLEQEKQKKQREQAETN[Abu]QILAQV-NH2
SMILES: CC[C@H](NC(=O)[C@H](CC(N)=O)NC(=O)[C@@H](NC(=O)[C@H](CCC(=O)O)NC(=O)[C@H](C)NC(=O)[C@H](CCC(N)=O)NC(=O)[C@H](CCC(=O)O)NC(=O)[C@H](CCCNC(=N)N)NC(=O)[C@H](CCC(N)=O)NC(=O)[C@H](CCCCN)NC(=O)[C@H](CCCCN)NC(=O)[C@H](CCC(N)=O)NC(=O)[C@H](CCCCN)NC(=O)[C@H](CCC(=O)O)NC(=O)[C@H](CCC(N)=O)NC(=O)[C@H](CCC(=O)O)NC(=O)[C@H](CC(C)C)NC(=O)[C@H](CC(C)C)NC(=O)[C@@H](NC(=O)[C@H](CCCCN)NC(=O)[C@H](CCCCNC(=O)COCCOCCNC(=O)COCCOCCNC(=O)CC[C@H](NC(=O)CCCCCCCCCCCCCCCCC(=O)O)C(=O)O)NC(=O)[C@H](CC(C)C)NC(=O)[C@H](CCCCN)NC(=O)[C@@H](NC(=O)[C@@H]1CCCN1C(=O)[C@H](NC(=O)[C@H](CC(=O)O)NC(=O)[C@H](CC(C)C)NC(=O)[C@H](CO)NC(=O)[C@H](CC(C)C)NC(=O)[C@@H](NC(=O)[C@@H](NC(C)=O)[C@@H](C)CC)C(C)C)C(C)C)[C@@H](C)CC)[C@@H](C)CC)[C@@H](C)O)C(=O)N[C@@H](CCC(N)=O)C(=O)N[C@H](C(=O)N[C@@H](CC(C)C)C(=O)N[C@@H](C)C(=O)N[C@@H](CCC(N)=O)C(=O)N[C@H](C(N)=O)C(C)C)[C@@H](C)CC
With B1, the “Emax (% I)” value in assay [1] was found to be 5%. For the same molecule, the EC50 [nM] (cAMP) in assay [2] stood at 0.47 nM.

B2: SEQ ID NO 2 (peptide)
peptide: Ac-IVLSLD[dV]PIKLK([γGlu-C16 diacid])QILLKQERQKKQREQAEKNKQILEQV-NH2
SMILES: CC[C@H](C)[C@H](NC(C)=O)C(=O)N[C@H](C(=O)N[C@@H](CC(C)C)C(=O)N[C@@H](CO)C(=O)N[C@@H](CC(C)C)C(=O)N[C@@H](CC(=O)O)C(=O)N[C@@H](C(=O)N1CCC[C@H]1C(=O)N[C@H](C(=O)N[C@@H](CCCCN)C(=O)N[C@@H](CC(C)C)C(=O)N[C@@H](CCCCNC(=O)CC[C@H](NC(=O)CCCCCCCCCCCCCCC(=O)O)C(=O)O)C(=O)N[C@@H](CCC(N)=O)C(=O)N[C@H](C(=O)N[C@@H](CC(C)C)C(=O)N[C@@H](CC(C)C)C(=O)N[C@@H](CCCCN)C(=O)N[C@@H](CCC(N)=O)C(=O)N[C@@H](CCC(=O)O)C(=O)N[C@@H](CCCNC(=N)N)C(=O)N[C@@H](CCC(N)=O)C(=O)N[C@@H](CCCCN)C(=O)N[C@@H](CCCCN)C(=O)N[C@@H](CCC(N)=O)C(=O)N[C@@H](CCCNC(=N)N)C(=O)N[C@@H](CCC(=O)O)C(=O)N[C@@H](CCC(N)=O)C(=O)N[C@@H](C)C(=O)N[C@@H](CCC(=O)O)C(=O)N[C@@H](CCCCN)C(=O)N[C@@H](CC(N)=O)C(=O)N[C@@H](CCCCN)C(=O)N[C@@H](CCC(N)=O)C(=O)N[C@H](C(=O)N[C@@H](CC(C)C)C(=O)N[C@@H](CCC(=O)O)C(=O)N[C@@H](CCC(N)=O)C(=O)N[C@H](C(N)=O)C(C)C)[C@@H](C)CC)[C@@H](C)CC)[C@@H](C)CC)C(C)C)C(C)C
Consider B2, for which, in assay [1], the “EC50” value was found to be 95.4 nM and the “Emax (% I)” value stood at 63%. Further, the EC50 [nM] (cAMP) in assay [2] worked out at 0.07 nM.

B3: SEQ ID NO 113 (peptide)
peptide: [NMeI]VLSLD[dV]PIKLK([AEEA-AEEA-γGlu-C18 diacid])KILLEQEKQKKQREQAETNAQILAQV-NH2
modifications: N-terminus assumed
SMILES: CC[C@H](C)[C@H](NC)C(=O)N[C@H](C(=O)N[C@@H](CC(C)C)C(=O)N[C@@H](CO)C(=O)N[C@@H](CC(C)C)C(=O)N[C@@H](CC(=O)O)C(=O)N[C@@H](C(=O)N1CCC[C@H]1C(=O)N[C@H](C(=O)N[C@@H](CCCCN)C(=O)N[C@@H](CC(C)C)C(=O)N[C@@H](CCCCNC(=O)COCCOCCNC(=O)COCCOCCNC(=O)CC[C@H](NC(=O)CCCCCCCCCCCCCCCCC(=O)O)C(=O)O)C(=O)N[C@@H](CCCCN)C(=O)N[C@H](C(=O)N[C@@H](CC(C)C)C(=O)N[C@@H](CC(C)C)C(=O)N[C@@H](CCC(=O)O)C(=O)N[C@@H](CCC(N)=O)C(=O)N[C@@H](CCC(=O)O)C(=O)N[C@@H](CCCCN)C(=O)N[C@@H](CCC(N)=O)C(=O)N[C@@H](CCCCN)C(=O)N[C@@H](CCCCN)C(=O)N[C@@H](CCC(N)=O)C(=O)N[C@@H](CCCNC(=N)N)C(=O)N[C@@H](CCC(=O)O)C(=O)N[C@@H](CCC(N)=O)C(=O)N[C@@H](C)C(=O)N[C@@H](CCC(=O)O)C(=O)N[C@H](C(=O)N[C@@H](CC(N)=O)C(=O)N[C@@H](C)C(=O)N[C@@H](CCC(N)=O)C(=O)N[C@H](C(=O)N[C@@H](CC(C)C)C(=O)N[C@@H](C)C(=O)N[C@@H](CCC(N)=O)C(=O)N[C@H](C(N)=O)C(C)C)[C@@H](C)CC)[C@@H](C)O)[C@@H](C)CC)[C@@H](C)CC)C(C)C)C(C)C
Consider B3, for which the “Emax (% I)” value in assay [1] was 6%. In addition, the EC50 [nM] (cAMP) in assay [2] was 0.35 nM.

B4: SEQ ID NO 105 (peptide)
peptide: Ac-IVLSLD[dV]PIKLK([AEEA-AEEA-γGlu-C18 diacid])KILLEQEKQKKQREQAETN[Nva]QILAQV-NH2
SMILES: CCC[C@H](NC(=O)[C@H](CC(N)=O)NC(=O)[C@@H](NC(=O)[C@H](CCC(=O)O)NC(=O)[C@H](C)NC(=O)[C@H](CCC(N)=O)NC(=O)[C@H](CCC(=O)O)NC(=O)[C@H](CCCNC(=N)N)NC(=O)[C@H](CCC(N)=O)NC(=O)[C@H](CCCCN)NC(=O)[C@H](CCCCN)NC(=O)[C@H](CCC(N)=O)NC(=O)[C@H](CCCCN)NC(=O)[C@H](CCC(=O)O)NC(=O)[C@H](CCC(N)=O)NC(=O)[C@H](CCC(=O)O)NC(=O)[C@H](CC(C)C)NC(=O)[C@H](CC(C)C)NC(=O)[C@@H](NC(=O)[C@H](CCCCN)NC(=O)[C@H](CCCCNC(=O)COCCOCCNC(=O)COCCOCCNC(=O)CC[C@H](NC(=O)CCCCCCCCCCCCCCCCC(=O)O)C(=O)O)NC(=O)[C@H](CC(C)C)NC(=O)[C@H](CCCCN)NC(=O)[C@@H](NC(=O)[C@@H]1CCCN1C(=O)[C@H](NC(=O)[C@H](CC(=O)O)NC(=O)[C@H](CC(C)C)NC(=O)[C@H](CO)NC(=O)[C@H](CC(C)C)NC(=O)[C@@H](NC(=O)[C@@H](NC(C)=O)[C@@H](C)CC)C(C)C)C(C)C)[C@@H](C)CC)[C@@H](C)CC)[C@@H](C)O)C(=O)N[C@@H](CCC(N)=O)C(=O)N[C@H](C(=O)N[C@@H](CC(C)C)C(=O)N[C@@H](C)C(=O)N[C@@H](CCC(N)=O)C(=O)N[C@H](C(N)=O)C(C)C)[C@@H](C)CC
Turning to B4, in assay [1], the “Emax (% I)” value amounted to 10%. In addition, in assay [2], the EC50 [nM] (cAMP) stood at 0.87 nM.

B5: SEQ ID NO 100 (peptide)
peptide: Ac-IVLSLD[dV]PIKLK([AEEA-AEEA-γGlu-C18 diacid])KILLEQEKQKKQREQAETNAQILAQV-NH2
SMILES: CC[C@H](C)[C@H](NC(C)=O)C(=O)N[C@H](C(=O)N[C@@H](CC(C)C)C(=O)N[C@@H](CO)C(=O)N[C@@H](CC(C)C)C(=O)N[C@@H](CC(=O)O)C(=O)N[C@@H](C(=O)N1CCC[C@H]1C(=O)N[C@H](C(=O)N[C@@H](CCCCN)C(=O)N[C@@H](CC(C)C)C(=O)N[C@@H](CCCCNC(=O)COCCOCCNC(=O)COCCOCCNC(=O)CC[C@H](NC(=O)CCCCCCCCCCCCCCCCC(=O)O)C(=O)O)C(=O)N[C@@H](CCCCN)C(=O)N[C@H](C(=O)N[C@@H](CC(C)C)C(=O)N[C@@H](CC(C)C)C(=O)N[C@@H](CCC(=O)O)C(=O)N[C@@H](CCC(N)=O)C(=O)N[C@@H](CCC(=O)O)C(=O)N[C@@H](CCCCN)C(=O)N[C@@H](CCC(N)=O)C(=O)N[C@@H](CCCCN)C(=O)N[C@@H](CCCCN)C(=O)N[C@@H](CCC(N)=O)C(=O)N[C@@H](CCCNC(=N)N)C(=O)N[C@@H](CCC(=O)O)C(=O)N[C@@H](CCC(N)=O)C(=O)N[C@@H](C)C(=O)N[C@@H](CCC(=O)O)C(=O)N[C@H](C(=O)N[C@@H](CC(N)=O)C(=O)N[C@@H](C)C(=O)N[C@@H](CCC(N)=O)C(=O)N[C@H](C(=O)N[C@@H](CC(C)C)C(=O)N[C@@H](C)C(=O)N[C@@H](CCC(N)=O)C(=O)N[C@H](C(N)=O)C(C)C)[C@@H](C)CC)[C@@H](C)O)[C@@H](C)CC)[C@@H](C)CC)C(C)C)C(C)C
Regarding B5, the “Emax (% I)” value in assay [1] was 8%. The molecule also showed an EC50 [nM] (cAMP) in assay [2] of 0.41 nM.

B6: SEQ ID NO 45 (peptide)
peptide: Ac-VLSLD[dV]PIKLK([γGlu-C16 diacid])KILLEQEKQKKQREQAETN[Aib]QILAQV-NH2
SMILES: CC[C@H](C)[C@H](NC(=O)[C@H](CCC(N)=O)NC(=O)C(C)(C)NC(=O)[C@H](CC(N)=O)NC(=O)[C@@H](NC(=O)[C@H](CCC(=O)O)NC(=O)[C@H](C)NC(=O)[C@H](CCC(N)=O)NC(=O)[C@H](CCC(=O)O)NC(=O)[C@H](CCCNC(=N)N)NC(=O)[C@H](CCC(N)=O)NC(=O)[C@H](CCCCN)NC(=O)[C@H](CCCCN)NC(=O)[C@H](CCC(N)=O)NC(=O)[C@H](CCCCN)NC(=O)[C@H](CCC(=O)O)NC(=O)[C@H](CCC(N)=O)NC(=O)[C@H](CCC(=O)O)NC(=O)[C@H](CC(C)C)NC(=O)[C@H](CC(C)C)NC(=O)[C@@H](NC(=O)[C@H](CCCCN)NC(=O)[C@H](CCCCNC(=O)CC[C@H](NC(=O)CCCCCCCCCCCCCCC(=O)O)C(=O)O)NC(=O)[C@H](CC(C)C)NC(=O)[C@H](CCCCN)NC(=O)[C@@H](NC(=O)[C@@H]1CCCN1C(=O)[C@H](NC(=O)[C@H](CC(=O)O)NC(=O)[C@H](CC(C)C)NC(=O)[C@H](CO)NC(=O)[C@H](CC(C)C)NC(=O)[C@@H](NC(C)=O)C(C)C)C(C)C)[C@@H](C)CC)[C@@H](C)CC)[C@@H](C)O)C(=O)N[C@@H](CC(C)C)C(=O)N[C@@H](C)C(=O)N[C@@H](CCC(N)=O)C(=O)N[C@H](C(N)=O)C(C)C
B6: the “Emax (% I)” value in assay [1] stood at 5%. In assay [2], this molecule registered an EC50 [nM] (cAMP) of 0.96 nM.
